Read-outs that look alike come from different tables or passages of the source.
T1: human FcRIIB/C protein (MednaBio, E1034) (human, UniProt P31994 43-217, limits assumed)
T1 construct: Bought as FcRIIB/C; also called FcγRIIB; CD32B
T1 sequence (looked up): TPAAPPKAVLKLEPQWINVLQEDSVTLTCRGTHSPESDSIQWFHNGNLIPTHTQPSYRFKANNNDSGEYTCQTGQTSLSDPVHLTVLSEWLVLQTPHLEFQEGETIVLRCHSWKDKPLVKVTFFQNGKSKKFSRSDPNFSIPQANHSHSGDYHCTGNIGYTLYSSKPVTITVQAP

T2: human FcRIIA protein (MednaBio, E1033) (human, UniProt P12318 34-218, limits assumed)
T2 construct: Bought; also called FcγRIIA
T2 sequence (looked up): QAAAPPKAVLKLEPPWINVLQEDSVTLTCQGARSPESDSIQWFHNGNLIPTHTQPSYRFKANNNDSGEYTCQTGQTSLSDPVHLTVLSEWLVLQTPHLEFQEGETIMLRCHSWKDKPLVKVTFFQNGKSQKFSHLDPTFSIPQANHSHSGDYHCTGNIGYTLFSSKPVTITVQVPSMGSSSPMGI

T3: human FcγRIIA(R131) expressed on CHO cells (human, UniProt P12318 34-317)
T3 construct: whole, on cells
T3 sequence (looked up): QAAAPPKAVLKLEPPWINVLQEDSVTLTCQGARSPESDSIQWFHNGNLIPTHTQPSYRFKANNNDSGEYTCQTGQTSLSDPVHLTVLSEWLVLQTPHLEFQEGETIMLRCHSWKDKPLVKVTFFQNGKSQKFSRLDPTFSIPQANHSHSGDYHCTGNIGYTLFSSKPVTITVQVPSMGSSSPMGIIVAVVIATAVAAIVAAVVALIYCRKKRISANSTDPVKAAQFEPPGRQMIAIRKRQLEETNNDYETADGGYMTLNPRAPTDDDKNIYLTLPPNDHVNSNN


Key:
[1] = target: T4, human FcRIIIB protein (MednaBio, E1037) (human, UniProt O75015 17-200); test: BLI
T4 construct: Bought; also called FcγRIIIB; FcgRIIIB
T4 sequence (O75015 17-200 limits assumed): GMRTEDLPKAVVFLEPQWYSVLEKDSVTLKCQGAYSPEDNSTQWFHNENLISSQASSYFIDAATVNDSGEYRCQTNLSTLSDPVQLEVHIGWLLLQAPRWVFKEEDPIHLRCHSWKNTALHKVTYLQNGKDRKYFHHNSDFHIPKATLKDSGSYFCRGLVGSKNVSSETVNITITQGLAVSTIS
Summary of the method: (§1)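 Binding was measured by biolayer interferometry on an Octet Red96 System, with commercial human Fc receptor proteins loaded at 20 μg/mL onto anti-penta-HIS biosensors. Sensors were dipped into an 8-point 1:3 dilution series of test IgG starting at 300 nM in PBS with 0.1% BSA and 0.02% Tween-20. Fcγ receptor assays ran at pH 7.2 and FcRn assays at pH 6. Kd, kon and koff came from global fitting to a 1:1 binding model.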

[2] = target: T5, human FcRIIIA-V158 protein (MednaBio, E1035) (human, UniProt P08637 17-208); test: BLI
T5 construct: Bought; also called FcγRIIIA(V); FcgRIIIA(V)
T5 sequence (P08637 17-208 F176V): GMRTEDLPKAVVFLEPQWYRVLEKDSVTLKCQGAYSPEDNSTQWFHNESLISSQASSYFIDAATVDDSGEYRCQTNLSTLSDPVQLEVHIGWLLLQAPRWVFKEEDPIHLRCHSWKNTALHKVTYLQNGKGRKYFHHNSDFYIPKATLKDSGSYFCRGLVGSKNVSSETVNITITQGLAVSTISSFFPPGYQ
Summary of the method: as §1

[3] = target: T6, human FcRIIIA-F158 protein (MednaBio, E1036) (human, UniProt P08637 17-208); test: BLI
T6 construct: Bought; also called FcγRIIIA(F)
T6 sequence (P08637 17-208 limits assumed): as the sequence (P08637 17-208 F176V) above, with V160F counted along it
Summary of the method: as §1

[4] = target: T7, human FcRn protein (MednaBio, E1032) (human, UniProt P55899 24-297; P61769 21-119); test: BLI
T7 construct: Bought; assays at pH 6
Summary of the method: as §1

[5] = target: T1, human FcRIIB/C protein (MednaBio, E1034); test: BLI
Summary of the method: as §1

[6] = target: T2, human FcRIIA protein (MednaBio, E1033); test: BLI
Summary of the method: as §1

[7] = target: T8, human FcRI protein (MednaBio, E1031) (human, UniProt P12314 16-288, limits assumed); test: BLI
T8 construct: Bought; loaded on anti-penta-HIS biosensors; also called FcγRI
T8 sequence (P12314 16-288 limits assumed): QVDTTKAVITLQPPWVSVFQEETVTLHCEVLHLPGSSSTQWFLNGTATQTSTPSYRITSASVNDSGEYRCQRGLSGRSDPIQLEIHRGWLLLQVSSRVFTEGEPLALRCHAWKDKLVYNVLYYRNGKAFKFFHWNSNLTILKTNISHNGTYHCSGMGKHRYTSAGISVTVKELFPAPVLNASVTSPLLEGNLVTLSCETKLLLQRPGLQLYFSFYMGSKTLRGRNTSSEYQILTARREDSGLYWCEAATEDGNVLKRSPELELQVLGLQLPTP
Summary of the method: as §1

[8] = target: T3, human FcγRIIA(R131) expressed on CHO …; test: FACS, CHO cells expressing FcγRIIA(R131)
Description: For FACS analysis of the IgG mutants' binding to different FcγRs, FcγR overexpressing CHO cells were harvested using trypsin-EDTA and were suspended in cold staining buffer (3% BSA in PBS). Test IgG mutants, which were diluted in staining buffer, were added into the cells. The mixture was incubated 4° C. for 2 hours, and then washed twice with cold staining buffer and re-suspended in PE-labeled anti-human IgG followed by incubation at 4° C. for 2 hours. The mixture was washed twice with staining buffer and re-suspended in 2% PFA in PBS for FACS.

[9] = target: T4, human FcRIIIB protein (MednaBio, E1037); test: BLI; remark: listed apart in the source
Summary of the method: as §1

[10] = target: T5, human FcRIIIA-V158 protein (MednaBio, …); test: BLI; remark: listed apart in the source
Summary of the method: as §1

[11] = target: T6, human FcRIIIA-F158 protein (MednaBio, …); test: BLI; remark: listed apart in the source
Summary of the method: as §1

[12] = target: T7, human FcRn protein (MednaBio, E1032); test: BLI; remark: listed apart in the source
Summary of the method: as §1

[13] = target: T1, human FcRIIB/C protein (MednaBio, E1034); test: BLI; remark: listed apart in the source
Summary of the method: as §1

[14] = target: T2, human FcRIIA protein (MednaBio, E1033); test: BLI; remark: listed apart in the source
Summary of the method: as §1

[15] = target: T8, human FcRI protein (MednaBio, E1031); test: BLI; remark: listed apart in the source
Summary of the method: as §1

Row | binding result [9] | Kd [10] [nM] | koff [10] [s⁻¹] | kon [10] [M⁻¹ s⁻¹] | Kd [11] [nM] | koff [11] [s⁻¹] | kon [11] [M⁻¹ s⁻¹] | Kd [12] [nM] | koff [12] [s⁻¹] | kon [12] [M⁻¹ s⁻¹] | Kd [13] [nM] | koff [13] [s⁻¹] | kon [13] [M⁻¹ s⁻¹] | Kd [14] [nM] | koff [14] [s⁻¹] | kon [14] [M⁻¹ s⁻¹] | Kd [15] [nM] | koff [15] [s⁻¹] | kon [15] [M⁻¹ s⁻¹] | Binder | also measured
1 |  |  |  |  |  |  |  |  |  |  |  |  |  |  |  |  |  |  |  | anti-CD137 IgG2 with Fc variant G2m5 (antibody, copies: 2 + 2) heavy: EVQLVQSGAEVKKPGESLRISCKGSGYSFSTYWISWVRQMPGKGLEWMGKIYPGDSYTNYSPSFQGQVTISADKSISTAYLQWSSLKASDTAMYYCARGYGIFDYWGQGTLVTVSSASTKGPSVFPLAPCSRSTSESTAALGCLVKDYFPEPVTVSWNSGALTSGVHTFPAVLQSSGLYSLSSVVTVPSSNFGTQTYTCNVDHKPSNTKVDKTVERKCCVECPPCPAPPVAGPSVFLFPPKPKDTLMISRTPEVTCVVVDVSHEDPEEQFNWYVDGVEVHNAKTKPREEQFNSTFRVVSVLTVVHQDWLNGKEYKCKVSNKGLPAPIEKTISKTKGQPREPQVYTLPPSREEMTKNQVSLTCLVKGFYPSDIAVEWESNGQPENNYKTTPPMLDSDGSFFLYSKLTVDKSRWQQGNVFSCSVMHEALHNHYTQKSLSLSPGK light: SYELTQPPSVSVSPGQTASITCSGDNIGDQYAHWYQQKPGQSPVLVIYQDKNRPSGIPERFSGSNSGNTATLTISGTQAMDEADYYCATYTGFGSLAVFGGGTKLTVLGQPKAAPSVTLFPPSSEELQANKATLVCLISDFYPGAVTVAWKADSSPVKAGVETTTPSKQSNNKYAASSYLSLTPEQWKSHRSYSCQVTHEGSTVEKTVAPTECS | binding result [1]: no binding (tested: 300 nM); binding result [2]: no binding (tested: 300 nM); binding result [3]: no binding (tested: 300 nM); Kd [4]: 14 nM; koff [4]: 0.011 s⁻¹; kon [4]: 800000 M⁻¹ s⁻¹; Kd [5]: 310 nM; koff [5]: 0.12 s⁻¹; kon [5]: 390000 M⁻¹ s⁻¹; Kd [6]: 230 nM; koff [6]: 0.14 s⁻¹; kon [6]: 600000 M⁻¹ s⁻¹; binding result [7]: no binding (tested: 300 nM); binding result [8]: no binding (tested: 10 ug/ml)
2 | no binding (tested: 300 nM) | 1260 | 0.0149 | 11800 | 917 | 0.013 | 14300 | 57.6 | 0.0122 | 212000 | 517 | 0.0915 | 176000 | 829 | 0.0165 | 19900 |  |  |  | anti-CD137 IgG2 with Fc variant G2m20 (antibody, copies: 2 + 2) heavy: EVQLVQSGAEVKKPGESLRISCKGSGYSFSTYWISWVRQMPGKGLEWMGKIYPGDSYTNYSPSFQGQVTISADKSISTAYLQWSSLKASDTAMYYCARGYGIFDYWGQGTLVTVSSASTKGPSVFPLAPCSRSTSESTAALGCLVKDYFPEPVTVSWNSGALTSGVHTFPAVLQSSGLYSLSSVVTVPSSNFGTQTYTCNVDHKPSNTKVDKTVERKCCVECPPCPAPPVAPSVFLFPPKPKDTLMISRTPEVTCVVVDVSHEDPEVQFNWYVDGVEVHNAKTKPREEQFNSTFRVVSVLTVVHQDWLNGKEYKCKVSNKGLPAPIEKTISKTKGQPREPQVYTLPPSREEMTKNQVSLTCLVKGFYPSDIAVEWESNGQPENNYKTTPPMLDSDGSFFLYSKLTVDKSRWQQGNVFSCSVMHEALHNHYTQKSLSLSPGK light: SYELTQPPSVSVSPGQTASITCSGDNIGDQYAHWYQQKPGQSPVLVIYQDKNRPSGIPERFSGSNSGNTATLTISGTQAMDEADYYCATYTGFGSLAVFGGGTKLTVLGQPKAAPSVTLFPPSSEELQANKATLVCLISDFYPGAVTVAWKADSSPVKAGVETTTPSKQSNNKYAASSYLSLTPEQWKSHRSYSCQVTHEGSTVEKTVAPTECS | binding result [15]: no binding (tested: 300 nM)
3 |  | 153 | 0.205 | 1.34e+06 | 168 | 0.262 | 1.56e+06 | 7.46 | 0.0139 | 1.87e+06 | 236 | 0.0848 | 361000 | 422 | 0.274 | 648000 | 253 | 0.277 | 1.09e+06 | anti-CD137 IgG2 with Fc variant G2m17 (antibody, copies: 2 + 2) heavy: EVQLVQSGAEVKKPGESLRISCKGSGYSFSTYWISWVRQMPGKGLEWMGKIYPGDSYTNYSPSFQGQVTISADKSISTAYLQWSSLKASDTAMYYCARGYGIFDYWGQGTLVTVSSASTKGPSVFPLAPCSRSTSESTAALGCLVKDYFPEPVTVSWNSGALTSGVHTFPAVLQSSGLYSLSSVVTVPSSNFGTQTYTCNVDHKPSNTKVDKTVERKCCVECPPCPAPPVASVFLFPPKPKDTLMISRTPEVTCVVVDVEHEDPEVQFNWYVDGVEVHNAKTKPREEQFNSTFRVVSVLTVVHQDWLNGKEYKCKVSNKGLPAPIEKTISKTKGQPREPQVYTLPPSREEMTKNQVSLTCLVKGFYPSDIAVEWESNGQPENNYKTTPPMLDSDGSFFLYSKLTVDKSRWQQGNVFSCSVMHEALHNHYTQKSLSLSPGK light: SYELTQPPSVSVSPGQTASITCSGDNIGDQYAHWYQQKPGQSPVLVIYQDKNRPSGIPERFSGSNSGNTATLTISGTQAMDEADYYCATYTGFGSLAVFGGGTKLTVLGQPKAAPSVTLFPPSSEELQANKATLVCLISDFYPGAVTVAWKADSSPVKAGVETTTPSKQSNNKYAASSYLSLTPEQWKSHRSYSCQVTHEGSTVEKTVAPTECS | Kd [9]: 117 nM; koff [9]: 0.204 s⁻¹; kon [9]: 1.74e+06 M⁻¹ s⁻¹
4 | no binding (tested: 300 nM) |  |  |  | 527 | 0.257 | 487000 | 26.4 | 0.0195 | 737000 | 256 | 0.0464 | 181000 | 191 | 0.0898 | 470000 | 66.1 | 0.098 | 1.49e+06 | anti-CD137 IgG2 with Fc variant G2m28 (antibody, also called Gbn28; copies: 2 + 2) heavy: EVQLVQSGAEVKKPGESLRISCKGSGYSFSTYWISWVRQMPGKGLEWMGKIYPGDSYTNYSPSFQGQVTISADKSISTAYLQWSSLKASDTAMYYCARGYGIFDYWGQGTLVTVSSASTKGPSVFPLAPCSRSTSESTAALGCLVKDYFPEPVTVSWNSGALTSGVHTFPAVLQSSGLYSLSSVVTVPSSNFGTQTYTCNVDHKPSNTKVDKTVERKCCVECPPCPAPPVAPSVFLFPPKPKDTLMISRTPEVTCVVVDVEHEDPEVQFNWYVDGVEVHNAKTKPREEQFNSTFRVVSVLTVVHQDWLNGKEYKCKVSNKGLPAPIEKTISKTKGQPREPQVYTLPPSREEMTKNQVSLTCLVKGFYPSDIAVEWESNGQPENNYKTTPPMLDSDGSFFLYSKLTVDKSRWQQGNVFSCSVMHEALHNHYTQKSLSLSPGK light: SYELTQPPSVSVSPGQTASITCSGDNIGDQYAHWYQQKPGQSPVLVIYQDKNRPSGIPERFSGSNSGNTATLTISGTQAMDEADYYCATYTGFGSLAVFGGGTKLTVLGQPKAAPSVTLFPPSSEELQANKATLVCLISDFYPGAVTVAWKADSSPVKAGVETTTPSKQSNNKYAASSYLSLTPEQWKSHRSYSCQVTHEGSTVEKTVAPTECS | binding result [10]: no binding (tested: 300 nM)
